B1: GvpF fused to NGFP or CGFP (split-GFP) [Halobacterium salinarum PHH1] / GvpA fused to NGFP or CGFP (split-GFP) [Halobacterium salinarum PHH1] (parent complex)
chain 1: MTENLYTYGIIEQEDLELDVEGVAGAEQVYTVDYKTLSAVVSDIDTTDPERTDEDVEAHNNVLQEVLKHEEERTVVPMSFGMAFKSARTLKGVLRGARRALRSTLNDIEGTVELGVKILGPGDDTVPREEIQENVTDQLADLSINETENDLFTDRLIINKSYLVDFEKRDAFDSAIDDVEAEYDELTIQYTGPWPPYNFVDIHIGAEQQQGGR
chain 2: MAQPDSSGLAEVLDRVLDKGVVVDVWARVSLVGIEILTVEARVVAASVDTFLHYAEEIAKIEQAELTAGAEAAPEA

In the experiment the parent is B1. Briefly: split-GFP; in Hfx. volcanii; FN fusion protein used as interaction partner; two biological and three technical replicates; parent: 20; read off a plot.
chain 2 G33V: the response was approximately 5.6 relative fluorescence. Then chain 2 R15A, with approximately 5.3 relative fluorescence; and chain 2 H53A, with approximately 12 relative fluorescence; and chain 2 A45Y, with approximately 9 relative fluorescence. Consider chain 2 E65A, for which the response was approximately 13 relative fluorescence. Then chain 2 D14A, with approximately 13 relative fluorescence; and chain 2 E11A, with approximately 11 relative fluorescence.

As for chain 2 A64Y, the response was approximately 14 relative fluorescence. The value for chain 2 T38A was approximately 13 relative fluorescence; that for chain 2 L52E was approximately 19 relative fluorescence.

Take chain 2 R42E: the response was approximately 12 relative fluorescence. As to chain 2 R42A, the response was approximately 12 relative fluorescence. For the variant chain 2 I61A, the response is approximately 16 relative fluorescence.

Regarding chain 2 D5A, the response is approximately 10 relative fluorescence. The value for chain 2 V29D was approximately 19 relative fluorescence. Then chain 2 Y54A, with approximately 14 relative fluorescence. The value for chain 2 A46Y was approximately 11 relative fluorescence. As to chain 2 A41E, the response was approximately 19 relative fluorescence.

Take chain 2 A27E: the response was approximately 5.2 relative fluorescence. Turning to chain 2 W26A, the response was approximately 19 relative fluorescence. The value for chain 2 K19A was approximately 9.8 relative fluorescence; that for chain 2 K19D was approximately 5.4 relative fluorescence; that for chain 2 L17A was approximately 13 relative fluorescence.

As for chain 2 E57A, the response is approximately 12 relative fluorescence.

Values taken from paper PMC7688916 (2020).
